Measured values: patent US20120316071A1 (published 2012)

Assays:
[1] = target: T1, Recombinant Human DLL4 (R&D Systems Cat#1506-D4/CF) (human, UniProt Q9NR61 27-524); experiment: MSD multispot ECL, antigen spotted on plate, Fab 1410 nM; blank spot 709
T1 construct: Bought from R&D Systems; also called rHuman DLL4; delta-like protein 4

[2] = target: T2, rHuman ErbB2/Fc Chimera, CF (R&D Systems Cat#1129-ER) (human, UniProt P04626 23-652); experiment: as above
T2 construct: Bought from R&D Systems; also called human epidermal growth factor 2 receptor (ErbB2); not shown: Fc of the bought chimera

[3] = target: T3, rHuman EGF R/Fc Chimera, CF (R&D Systems Cat#344-ER) (human, UniProt P00533 25-645); experiment: as above
T3 construct: Bought from R&D Systems; also called epidermal growth factor receptor (EGF R); not shown: Fc of the bought chimera

[4] = target: T4, rHuman HGF R/c-MET/Fc Chimera, CF (R&D Systems Cat#358-MT/CF) (human, UniProt P08581 25-932); experiment: as above
T4 construct: Bought from R&D Systems; also called HGF R/Fc; hepatocyte growth factor receptor (HGF R/c-Met); not shown: Fc of the bought chimera

[5] = target: T5, rHuman Notch-1/Fc Chimera, CF (R&D Systems Cat#3647-TK) (human, UniProt P46531 19-526); experiment: as above
T5 construct: Bought from R&D Systems; not shown: Fc of the bought chimera

[6] = target: T6, rHuman CD44/Fc Chimera, CF (R&D Systems Cat#3660-CD) (human, UniProt P16070 21-220); experiment: as above
T6 construct: Bought from R&D Systems; not shown: Fc of the bought chimera

[7] = target: T7, rHuman IGF-1 sR, (IGF-1 sR), CF (R&D Systems Cat#391-GR) (human, UniProt P08069 31-932); experiment: as above
T7 construct: Bought from R&D Systems and called a soluble receptor; also called insulin-like growth factor-1 soluble receptor

[8] = target: T8, rHuman P-Cadherin/Fc Chimera, CF (R&D Systems Cat#861-PC) (human, UniProt P22223 108-654); experiment: as above
T8 construct: Bought from R&D Systems; not shown: Fc of the bought chimera

[9] = target: T9, rHuman Erythropoietin R/Fc Chimera, CF (R&D Systems Cat#963-ER) (human, UniProt P19235 25-250); experiment: as above
T9 construct: Bought from R&D Systems; also called EPO R/Fc; Epo R/Fc chimera; not shown: Fc of the bought chimera
T9 sequence (looked up): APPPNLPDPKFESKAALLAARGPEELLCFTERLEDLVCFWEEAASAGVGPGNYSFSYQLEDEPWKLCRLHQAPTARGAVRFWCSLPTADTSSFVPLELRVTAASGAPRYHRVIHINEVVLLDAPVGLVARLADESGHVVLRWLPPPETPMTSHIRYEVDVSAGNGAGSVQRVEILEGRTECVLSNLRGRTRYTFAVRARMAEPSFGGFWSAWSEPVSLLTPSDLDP

[10] = target: T10, rHuman Erythropoietin R/Fc Chimera, CF (R&D Systems Cat#963-ER) (human, UniProt P19235 25-250); experiment: MSD Multispot ECL, antigen spotted on plate, Fab 130 nM; blank spot 1153
T10 construct: Bought reagent; also called EPO R/Fc; EPO R; Fc part of the bought chimera not given
T10 sequence (looked up): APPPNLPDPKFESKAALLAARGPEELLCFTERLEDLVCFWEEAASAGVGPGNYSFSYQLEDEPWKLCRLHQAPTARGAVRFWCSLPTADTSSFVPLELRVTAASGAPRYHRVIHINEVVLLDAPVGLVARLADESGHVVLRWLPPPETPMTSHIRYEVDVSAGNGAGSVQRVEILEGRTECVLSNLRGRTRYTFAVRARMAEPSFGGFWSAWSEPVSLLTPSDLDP

[11] = target: T11, rHuman CD44/Fc Chimera, CF (R&D Systems Cat#3660-CD) (human, UniProt P16070 21-220); experiment: as above
T11 construct: Bought reagent; Fc part of the bought chimera not given

[12] = target: T12, Recombinant Human DLL4 (R&D Systems Cat#1506-D4/CF) (human, UniProt Q9NR61 27-529); experiment: MSD Multispot ECL, antigen spotted on plate, Fab 32.5 nM; blank spot 473
T12 construct: Bought recombinant protein; also called rHuman DLL4; delta-like protein 4

[13] = target: T13, rHuman ErbB2/Fc Chimera, CF (R&D Systems Cat#1129-ER) (human, UniProt P04626 23-652); experiment: as above
T13 construct: Bought reagent; also called human epidermal growth factor 2 receptor; Fc part of the bought chimera not given

[14] = target: T14, rHuman EGF R/Fc Chimera, CF (R&D Systems Cat#344-ER) (human, UniProt P00533 25-645); experiment: as above
T14 construct: Bought reagent; also called epidermal growth factor receptor; Fc part of the bought chimera not given

[15] = target: T15, rHuman HGF R/c-MET/Fc Chimera, CF (R&D Systems Cat#358-MT/CF) (human, UniProt P08581 25-932); experiment: as above
T15 construct: Bought reagent; also called HGF R/Fc; hepatocyte growth factor receptor; Fc part of the bought chimera not given

[16] = target: T16, rHuman Notch-1/Fc Chimera, CF (R&D Systems Cat#3647-TK) (human, UniProt P46531 19-526); experiment: as above
T16 construct: Bought reagent; Fc part of the bought chimera not given

[17] = target: T11, rHuman CD44/Fc Chimera, CF (R&D Systems …); experiment: as above
[18] = target: T17, rHuman IGF-1 sR, (IGF-1 sR), CF (R&D Systems Cat#391-GR) (human, UniProt P08069 31-932); experiment: as above
T17 construct: Bought soluble receptor; also called insulin-like growth factor-1 soluble receptor

B1: Fab VH1-46_IGHD3-10*01_IGHJ4*01 & B3_IGKJ1*01 (Fab, V domains shown)
VH: QVQLVQSGAEVKKPGASVKVSCKASGYTFTSYYMHWVRQAPGQGLEWMGIINPSGGSTSYAQKFQGRVTMTRDTSTSTVYMELSSLRSEDTAVYYCAREYYYGSGSYYNDYFDYWGQGTLVTVSS
VL: not shown
notes: Tested as a Fab made in E. coli; VH was cloned into Plasmid A (CH1 constant region, His6 and Flag tags); The kappa VL was cloned into Plasmid C (kappa CL)
What does the source list for B1?
ECL signal [1]: 1260; ECL signal [2]: 932; ECL signal [3]: 1070; ECL signal [4]: 903; ECL signal [5]: 1030; ECL signal [6]: 885; ECL signal [7]: 426; ECL signal [8]: 1060; ECL signal [9]: 4310

B2: Fab VH1-8_IGHD2-2*01_IGHJ6*01 & L12_IGKJ1*01 (Fab, V domains shown)
VH: QVQLVQSGAEVKKPGASVKVSCKASGYTFTSYDINWVRQATGQGLEWMGWMNPNSGNTGYAQKFQGRVTMTRNTSISTAYMELSSLRSEDTAVYYCARGGYCSSTSCYADYYYYYGMDVWGQGTTVTVSS
VL: not shown
Which results are given for B2?
ECL signal [10]: 2150; ECL signal [11]: 1750; ECL signal [12]: 2990; ECL signal [13]: 556; ECL signal [14]: 645; ECL signal [15]: 525; ECL signal [16]: 706; ECL signal [17]: 573; ECL signal [18]: 561
